± gives the uncertainty stated by the source.

These results are taken from the supplement of paper PMC12042874.

The data set is described as follows: amyloid nucleation score (Sup35N fusion, yeast selection) (log enrichment); library NNK3; higher = more nucleation; inactive = no reads after selection. The method, boiled down: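 For the nucleation score, DiMSum gave the log enrichment of output over input reads, centred on the mode score of non-aggregating sequences. Psi-negative yeast expressing Sup35N fused to peptides of 20 random codons were induced with 100 μM copper sulfate for 24 hours and grown 7 days at 30°C on medium lacking adenine and uracil. Input and output plasmid inserts were Illumina-sequenced, and sequences with under 100 input reads were excluded.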
On to HPMLFSFYVKGRVFLSRV, for which the amyloid nucleation score entry is “inactive”.

For the substance KVSNTRLVRTINMSCGISYP, the amyloid nucleation score entry is “inactive”.

Take NFFVKTNRHGNVTTFGGR: the amyloid nucleation score entry was “inactive”.

On to FNWFCLFLWMRNRSKPFWTM, for which the amyloid nucleation score entry is “inactive”.

Regarding VVEPNTRVIWRLLHIDLDKQ, the amyloid nucleation score result is “inactive”.

As for LNCPSYPNVGPWNLEVTAFQ, the amyloid nucleation score result was “inactive”.

As to FLCSTVIISNVLMRPAYYVR, the amyloid nucleation score result was “inactive”.

As for SMIGQSVEFYLISCYRGLCT, the amyloid nucleation score entry was “inactive”.

In the case of LREYFMFPRVHNLFNLV, the amyloid nucleation score result is “inactive”.

YAGSCK: the amyloid nucleation score entry is “inactive”.

Substance IEFGGNN showed an amyloid nucleation score of 1.68 ± 0.13.

For YSYICIILYWWCSRSAILPF, the amyloid nucleation score result was “inactive”.

Consider RSRSYRMGSLLVKSWILTLT, for which the amyloid nucleation score entry was “inactive”.

On to STPSTQDFVKQSLEARVLSS, for which the amyloid nucleation score entry was “inactive”.

MRYFFLTRNLGLRAEPVC: the amyloid nucleation score entry is “inactive”.

Turning to CKGLIFISSFANVVLN, the amyloid nucleation score amounted to 1.52 ± 0.12.

Take SWQMWYWLLVKSMPCMLHHF: the amyloid nucleation score result is “inactive”.

For YKNSGFNLFNRVGNWMGVKL, the amyloid nucleation score entry was “inactive”.

On to LTASYSFVTTVGYSGLDLKV, for which the amyloid nucleation score result was “inactive”.

As for SLRSYSGILSFYGYSGKIST, the amyloid nucleation score result is “inactive”.

HRVYLPGRWRLMISLSC came in with an amyloid nucleation score of -0.201 ± 1.3.

As for CEYLGPVYIM, the amyloid nucleation score result was “inactive”.

In the case of SKCEMMRTLEESDDVSFVVK, the amyloid nucleation score result is “inactive”.

Regarding SVILNLMRRWPRKHEVKDAC, the amyloid nucleation score entry was “inactive”.

NMVDCGISLV: the amyloid nucleation score entry was “inactive”.

Take SGMLKRFSALRGISASVVGV: the amyloid nucleation score result was “inactive”.

For the substance GFRECTRNFFL, the amyloid nucleation score was determined as 0.361 ± 0.17.

For the substance GLLVWQCMWGLDKKYLHSVY, the amyloid nucleation score result was “inactive”.

Take KKMHNVALGFMFIVVG: the amyloid nucleation score result is “inactive”.

For the substance TEVPFRVSF, the amyloid nucleation score result is “inactive”.

For YIRVVNAPVCTGNCLQDAYL, the amyloid nucleation score entry was “inactive”.

On to LCGSKICFLDSYDVESLISR, for which the amyloid nucleation score result is “inactive”.

Regarding LAKDVFIC, the amyloid nucleation score entry was “inactive”.

With TGSTDRHYGRYIGWGANSRF, the amyloid nucleation score result is “inactive”.

With YKNIFSWSPNSWTYKCSVNN, the amyloid nucleation score entry was “inactive”.

For WYNDVMEVESLISYVDFFRE, the amyloid nucleation score result was “inactive”.

As to TPLGSQLALESDFFYTPNRC, the amyloid nucleation score result is “inactive”.

On to FMTWHFENCCWCRHSRFGLL, for which the amyloid nucleation score entry was “inactive”.

For the substance CVWAVGVFFGFMIQRQDEER, the amyloid nucleation score result is “inactive”.

Turning to SSIGFLRSLGHQRPRSVSLP, the amyloid nucleation score result is “inactive”.

With WIGRTLLDSYDGRFSIAIRD, the amyloid nucleation score result was “inactive”.

AFFGCCYGRDLVEHW yielded an amyloid nucleation score of 1.49 ± 0.1.

In turn, FAAARSYFKLFHIYCDDVTG registered an amyloid nucleation score of 1.96 ± 0.071.

For the substance RDVCVHPNHFKCGAAMFPED, the amyloid nucleation score result is “inactive”.

TVSIRIINT displayed an amyloid nucleation score of 0.15 ± 0.66.

SETHLLQGDISVVMVLSAN: the amyloid nucleation score entry was “inactive”.

Turning to KEGNGMSFYN, the amyloid nucleation score result is “inactive”.

As to MFVWHSC, the amyloid nucleation score result was “inactive”.

Take CDVFVSY: the amyloid nucleation score entry is “inactive”.

Take LSNRGLIYHEGTRICATYRE: the amyloid nucleation score was 0.719 ± 0.22.

In the case of VIRRHWR, the amyloid nucleation score result was “inactive”.

For GRDAVHHCMLRESQRKLREV, the amyloid nucleation score entry was “inactive”.

For the substance RYDWLLGSVWVFLLA, the amyloid nucleation score result is “inactive”.

As to ISQFLGKFTFCNSALHFFGA, the amyloid nucleation score result is “inactive”.

On to RADPTRITSPSLLTIMKTHE, for which the amyloid nucleation score result was “inactive”.

LCVFWCGIPDRVFCNNGWMV: the amyloid nucleation score result was “inactive”.

As to IQAAEVWMTAPFGFDMEGGR, the amyloid nucleation score entry is “inactive”.

Take RFKKVVHSFRFCAIENVLDY: the amyloid nucleation score result is “inactive”.

In turn, RKVSSLVITRMAWMLSGNWL displayed an amyloid nucleation score of 2.57 ± 0.051.

As to FSFWTTSN, the amyloid nucleation score entry was “inactive”.

On to YYFHRFL, for which the amyloid nucleation score result is “inactive”.

For NLVSVSRSYIKCVDRHRRTA, the amyloid nucleation score result is “inactive”.

On to SEVWKWMPDKCVSDGYVFDI, for which the amyloid nucleation score result is “inactive”.

For ECCGDLGAVWQVVRNCGKVL, the amyloid nucleation score result was “inactive”.

Consider NALFHRI, for which the amyloid nucleation score result was “inactive”.

For IYSYTVFPSFGGMLCMVLVG, the amyloid nucleation score result was “inactive”.

As for TASVRVRFPLSFTPCLEVHP, the amyloid nucleation score entry is “inactive”.

On to VPKPD, for which the amyloid nucleation score entry was “inactive”.

Regarding FSASVVSTGINTSY, the amyloid nucleation score result is “inactive”.

Turning to AVQQKSECFLFAFLILRDWV, the amyloid nucleation score entry was “inactive”.

On to VLADCWRSGIHWIGHTYLIN, for which the amyloid nucleation score result was “inactive”.

As to AVIVVINNQTH, the amyloid nucleation score was 2.78 ± 0.077.

NFQNSVLFNMV: the amyloid nucleation score result is “inactive”.

As to AEFYERLPFDIPLHSYFNAW, the amyloid nucleation score result is “inactive”.

As for DRLRYNLWS, the amyloid nucleation score entry was “inactive”.

Consider FCSRYWLYLCRALLNRVVMR, for which the amyloid nucleation score entry is “inactive”.

On to GSTGVIDDLSKVHCGGMCVD, for which the amyloid nucleation score result is “inactive”.

For the substance VNRNVLTVSGCCLVYAPLC, the amyloid nucleation score was determined as 2.26 ± 0.06.

As for SDKPSMLKMIHVMR, the amyloid nucleation score result was “inactive”.

Turning to INNLYDVQRGIADFWKSWLV, the amyloid nucleation score entry is “inactive”.

With ICLVEISDGAFRKR, the amyloid nucleation score result is “inactive”.

Turning to IDTAFRSYCYDFDLANDLMG, the amyloid nucleation score result was “inactive”.

The substance DSSRTVGCLSCFYFAIGFWI yielded an amyloid nucleation score of 0.681 ± 0.34.

On to CSRPVVLIKGLLWAFRRWAY, for which the amyloid nucleation score result is “inactive”.

In the case of LCERIGVISGA, the amyloid nucleation score result was “inactive”.

For the substance ADCPPRYRLPWGELGLRGEI, the amyloid nucleation score result is “inactive”.

For TTCFTHGKLPNIRAWSIWTQ, the amyloid nucleation score entry is “inactive”.

Turning to NQVVAVG, the amyloid nucleation score entry was “inactive”.

On to WIKLNLTYAHWWNMV, for which the amyloid nucleation score entry was “inactive”.

Turning to HLSLAVEFA, the amyloid nucleation score entry is “inactive”.

On to YIYNSLLYI, for which the amyloid nucleation score entry was “inactive”.

VTFSSISHIRRYVSNHMCLG: the amyloid nucleation score entry was “inactive”.

SNYWNWGRGYVCSRFRELVI: the amyloid nucleation score entry was “inactive”.

For IGNCFMTMGRLVSRQDSVPM, the amyloid nucleation score was -0.427 ± 1.

On to IIFFNSDMNLGTDV, for which the amyloid nucleation score entry is “inactive”.

As to FSLMLSRTTMAIFTDIRDWG, the amyloid nucleation score entry is “inactive”.

On to IDCGGFDDIRVVSGDDEKMW, for which the amyloid nucleation score result was “inactive”.

Turning to DKVTHQCSISMSWAWRVHVV, the amyloid nucleation score entry was “inactive”.

As to ACSRGKCFTNRGSRWHLFVC, the amyloid nucleation score entry is “inactive”.

LHQSSTGLSC: the amyloid nucleation score result is “inactive”.

IINATVCHCM registered an amyloid nucleation score of 3.33 ± 0.077.

In the case of DSGKC, the amyloid nucleation score is -0.165 ± 0.33.

LWLSDRNSLDSIAVCA returned an amyloid nucleation score of 1.24 ± 0.093.

Turning to HHLGRSLGIVTSLQLGIILL, the amyloid nucleation score entry was “inactive”.

Take GSTSRIPGVLVSKRRANMQH: the amyloid nucleation score entry is “inactive”.

Turning to FRSAN, the amyloid nucleation score entry was “inactive”.

With MLYRCLAKYRMWHYVDLSLL, the amyloid nucleation score entry was “inactive”.

Regarding YYYLKVHNLVSYVNAFVR, the amyloid nucleation score result is “inactive”.

SKKPVEMTRNI: the amyloid nucleation score result was “inactive”.

Turning to WFGEYPQFWRARSYFRTSDW, the amyloid nucleation score result was “inactive”.

As to FQCMFYFIFSRCQHLVYCHF, the amyloid nucleation score entry is “inactive”.

Consider IVFLLLVRLLVFIP, for which the amyloid nucleation score result was “inactive”.

The substance PVFVCCRWHVVFGKNNGSAT returned an amyloid nucleation score of 1.47 ± 0.13.

Consider DIVVGAQRNELFS, for which the amyloid nucleation score result was “inactive”.

Regarding AVCEMKIHCYITVPDPSRPR, the amyloid nucleation score entry was “inactive”.

For SWVYGSSDPSRVSSCLVGVL, the amyloid nucleation score entry was “inactive”.

Turning to LFIWTDILTFLRS, the amyloid nucleation score entry is “inactive”.

For the substance IIGSFC, the amyloid nucleation score entry was “inactive”.

On to SSDSKGFHGFGWFFWISLVT, for which the amyloid nucleation score result is “inactive”.

The substance MNGMICISNCFKDGHVTLNK displayed an amyloid nucleation score of 1.26 ± 0.16.

In the case of TPDFVRSRKMNWVAIKKRAE, the amyloid nucleation score result is “inactive”.

For TLLDVPRSRLWSKFWLCVQL, the amyloid nucleation score result was “inactive”.

For the substance LFGGCLSLDDIVTDRLMTCF, the amyloid nucleation score result was “inactive”.

Regarding IGRLMA, the amyloid nucleation score result is “inactive”.

LCSVDVVLPVKYCVLPDH had an amyloid nucleation score of 1.76 ± 0.076.

LGFFSSSKLLVGGASASIVS: the amyloid nucleation score result is “inactive”.

Consider SVDGDLAEDNMLMVSFSIGK, for which the amyloid nucleation score is 0.128 ± 0.54.

Take NPETASLNLIKMSMHVSSFV: the amyloid nucleation score result was “inactive”.

Take RESNNLLFQQVGYLYYSWFY: the amyloid nucleation score amounted to 1.86 ± 0.078.

In the case of RELFTFGVFRYQASL, the amyloid nucleation score is 0.817 ± 0.22.
